{"source": "paper doi:10.1101/2025.05.20.655083", "biological_target": "BSB PyV-LTA;mNLSn peptide (Black Sea Bass polyomavirus)", "assay": "fluorescence polarisation"}
{"substance": "mouse importin α2 ΔIBB (from UniProt P52293 70-529) (domain or fragment)", "values": [{"measurement": "fold decrease of binding affinity against BSB PyV-LTA;NLS", "value": 10, "unit": "times"}]}
